# B1: Tyrosine-protein phosphatase non-receptor type 7 (Homo sapiens), P35236 (parent)
# chain: MVQAHGGRSRAQPLTLSLGAAMTQPPPEKTPAKKHVRLQERRGSNVALMLDVRSLGAVEPICSVNTPREVTLHFLRTAGHPLTRWALQRQPPSPKQLEEEFLKIPSNFVSPEDLDIPGHASKDRYKTILPNPQSRVCLGRAQSQEDGDYINANYIRGYDGKEKVYIATQGPMPNTVSDFWEMVWQEEVSLIVMLTQLREGKEKCVHYWPTEEETYGPFQIRIQDMKECPEYTVRQLTIQYQEERRSVKHILFSAWPDHQTPESAGPLLRLVAEVEESPETAAHPGPIVVHCSAGIGRTGCFIATRIGCQQLKARGEVDILGIVCQLRLDRGGMIQTAEQYQFLHHTLALYAGQLPEEPSP
# B2: Receptor tyrosine-protein kinase erbB-4 (Homo sapiens), Q15303 (parent)
# chain: MKPATGLWVWVSLLVAAGTVQPSDSQSVCAGTENKLSSLSDLEQQYRALRKYYENCEVVMGNLEITSIEHNRDLSFLRSVREVTGYVLVALNQFRYLPLENLRIIRGTKLYEDRYALAIFLNYRKDGNFGLQELGLKNLTEILNGGVYVDQNKFLCYADTIHWQDIVRNPWPSNLTLVSTNGSSGCGRCHKSCTGRCWGPTENHCQTLTRTVCAEQCDGRCYGPYVSDCCHRECAGGCSGPKDTDCFACMNFNDSGACVTQCPQTFVYNPTTFQLEHNFNAKYTYGAFCVKKCPHNFVVDSSSCVRACPSSKMEVEENGIKMCKPCTDICPKACDGIGTGSLMSAQTVDSSNIDKFINCTKINGNLIFLVTGIHGDPYNAIEAIDPEKLNVFRTVREITGFLNIQSWPPNMTDFSVFSNLVTIGGRVLYSGLSLLILKQQGITSLQFQSLKEISAGNIYITDNSNLCYYHTINWTTLFSTINQRIVIRDNRKAENCTAEGMVCNHLCSSDGCWGPGPDQCLSCRRFSRGRICIESCNLYDGEFREFENGSICVECDPQCEKMEDGLLTCHGPGPDNCTKCSHFKDGPNCVEKCPDGLQGANSFIFKYADPDRECHPCHPNCTQGCNGPTSHDCIYYPWTGHSTLPQHARTPLIAAGVIGGLFILVIVGLTFAVYVRRKSIKKKRALRRFLETELVEPLTPSGTAPNQAQLRILKETELKRVKVLGSGAFGTVYKGIWVPEGETVKIPVAIKILNETTGPKANVEFMDEALIMASMDHPHLVRLLGVCLSPTIQLVTQLMPHGCLLEYVHEHKDNIGSQLLLNWCVQIAKGMMYLEERRLVHRDLAARNVLVKSPNHVKITDFGLARLLEGDEKEYNADGGKMPIKWMALECIHYRKFTHQSDVWSYGVTIWELMTFGGKPYDGIPTREIPDLLEKGERLPQPPICTIDVYMVMVKCWMIDADSRPKFKELAAEFSRMARDPQRYLVIQGDDRMKLPSPNDSKFFQNLLDEEDLEDMMDAEEYLVPQAFNIPPPIYTSRARIDSNRSEIGHSPPPAYTPMSGNQFVYRDGGFAAEQGVSVPYRAPTSTIPEAPVAQGATAEIFDDSCCNGTLRKPVAPHVQEDSSTQRYSADPTVFAPERSPRGELDEEGYMTPMRDKPKQEYLNPVEENPFVSRRKNGDLQALDNPEYHNASNGPPKAEDEYVNEPLYLNTFANTLGKAEYLKNNILSMPEKAKKAFDNPDYWNHSLPPRSTLQHPDYLQEYSTKYFYKQNGRIRPIVAENPEYLSEFSLKPGTVLPPPPYRHRNTVV
# partner: B1 chain
# B3: Tyrosine-protein phosphatase non-receptor type 12 (Homo sapiens), Q05209 (parent)
# chain: MEQVEILRKFIQRVQAMKSPDHNGEDNFARDFMRLRRLSTKYRTEKIYPTATGEKEENVKKNRYKDILPFDHSRVKLTLKTPSQDSDYINANFIKGVYGPKAYVATQGPLANTVIDFWRMIWEYNVVIIVMACREFEMGRKKCERYWPLYGEDPITFAPFKISCEDEQARTDYFIRTLLLEFQNESRRLYQFHYVNWPDHDVPSSFDSILDMISLMRKYQEHEDVPICIHCSAGCGRTGAICAIDYTWNLLKAGKIPEEFNVFNLIQEMRTQRHSAVQTKEQYELVHRAIAQLFEKQLQLYEIHGAQKIADGVNEINTENMVSSIEPEKQDSPPPKPPRTRSCLVEGDAKEEILQPPEPHPVPPILTPSPPSAFPTVTTVWQDNDRYHPKPVLHMVSSEQHSADLNRNYSKSTELPGKNESTIEQIDKKLERNLSFEIKKVPLQEGPKSFDGNTLLNRGHAIKIKSASPCIADKISKPQELSSDLNVGDTSQNSCVDCSVTQSNKVSVTPPEESQNSDTPPRPDRLPLDEKGHVTWSFHGPENAIPIPDLSEGNSSDINYQTRKTVSLTPSPTTQVETPDLVDHDNTSPLFRTPLSFTNPLHSDDSDSDERNSDGAVTQNKTNISTASATVSAATSTESISTRKVLPMSIARHNIAGTTHSGAEKDVDVSEDSPPPLPERTPESFVLASEHNTPVRSEWSELQSQERSEQKKSEGLITSENEKCDHPAGGIHYEMCIECPPTFSDKREQISENPTEATDIGFGNRCGKPKGPRDPPSEWT
# B4: Macrophage-stimulating protein receptor (Mus musculus), Q62190 (parent)
# chain: MGLPLPLLQSSLLLMLLLRLSAASTNLNWQCPRIPYAASRDFSVKYVVPSFSAGGRVQATAAYEDSTNSAVFVATRNHLHVLGPDLQFIENLTTGPIGNPGCQTCASCGPGPHGPPKDTDTLVLVMEPGLPALVSCGSTLQGRCFLHELEPRGKALHLAAPACLFSANNNKPEACTDCVASPLGTRVTVVEQGHASYFYVASSLDPELAASFSPRSVSIRRLKSDTSGFQPGFPSLSVLPKYLASYLIKYVYSFHSGDFVYFLTVQPISVTSPPSALHTRLVRLNAVEPEIGDYRELVLDCHFAPKRRRRGAPEGTQPYPVLQAAHSAPVDAKLAVELSISEGQEVLFGVFVTVKDGGSGMGPNSVVCAFPIYHLNILIEEGVEYCCHSSNSSSLLSRGLDFFQTPSFCPNPPGGEASGPSSRCHYFPLMVHASFTRVDLFNGLLGSVKVTALHVTRLGNVTVAHMGTVDGRVLQVEIARSLNYLLYVSNFSLGSSGQPVHRDVSRLGNDLLFASGDQVFKVPIQGPGCRHFLTCWRCLRAQRFMGCGWCGDRCDRQKECPGSWQQDHCPPEISEFYPHSGPLRGTTRLTLCGSNFYLRPDDVVPEGTHQITVGQSPCRLLPKDSSSPRPGSLKEFIQELECELEPLVTQAVGTTNISLVITNMPAGKHFRVEGISVQEGFSFVEPVLTSIKPDFGPRAGGTYLTLEGQSLSVGTSRAVLVNGTQCRLEQVNEEQILCVTPPGAGTARVPLHLQIGGAEVPGSWTFHYKEDPIVLDISPKCGYSGSHIMIHGQHLTSAWHFTLSFHDGQSTVESRCAGQFVEQQQRRCRLPEYVVRNPQGWATGNLSVWGDGAAGFTLPGFRFLPPPSPLRAGLVELKPEEHSVKVEYVGLGAVADCVTVNMTVGGEVCQHELRGDVVICPLPPSLQLGKDGVPLQVCVDGGCHILSQVVRSSPGRASQRILLIALLVLILLVAVLAVALIFNSRRRKKQLGAHSLSPTTLSDINDTASGAPNHEESSESRDGTSVPLLRTESIRLQDLDRMLLAEVKDVLIPHEQVVIHTDQVIGKGHFGVVYHGEYTDGAQNQTHCAIKSLSRITEVQEVEAFLREGLLMRGLHHPNILALIGIMLPPEGLPRVLLPYMRHGDLLHFIRSPQRNPTVKDLVSFGLQVACGMEYLAEQKFVHRDLAARNCMLDESFTVKVADFGLARGVLDKEYYSVRQHRHARLPVKWMALESLQTYRFTTKSDVWSFGVLLWELLTRGAPPYPHIDPFDLSHFLAQGRRLPQPEYCPDSLYHVMLRCWEADPAARPTFRALVLEVKQVVASLLGDHYVQLTAAYVNVGPRAVDDGSVPPEQVQPSPQHCRSTSKPRPLSEPPLPT
# partner: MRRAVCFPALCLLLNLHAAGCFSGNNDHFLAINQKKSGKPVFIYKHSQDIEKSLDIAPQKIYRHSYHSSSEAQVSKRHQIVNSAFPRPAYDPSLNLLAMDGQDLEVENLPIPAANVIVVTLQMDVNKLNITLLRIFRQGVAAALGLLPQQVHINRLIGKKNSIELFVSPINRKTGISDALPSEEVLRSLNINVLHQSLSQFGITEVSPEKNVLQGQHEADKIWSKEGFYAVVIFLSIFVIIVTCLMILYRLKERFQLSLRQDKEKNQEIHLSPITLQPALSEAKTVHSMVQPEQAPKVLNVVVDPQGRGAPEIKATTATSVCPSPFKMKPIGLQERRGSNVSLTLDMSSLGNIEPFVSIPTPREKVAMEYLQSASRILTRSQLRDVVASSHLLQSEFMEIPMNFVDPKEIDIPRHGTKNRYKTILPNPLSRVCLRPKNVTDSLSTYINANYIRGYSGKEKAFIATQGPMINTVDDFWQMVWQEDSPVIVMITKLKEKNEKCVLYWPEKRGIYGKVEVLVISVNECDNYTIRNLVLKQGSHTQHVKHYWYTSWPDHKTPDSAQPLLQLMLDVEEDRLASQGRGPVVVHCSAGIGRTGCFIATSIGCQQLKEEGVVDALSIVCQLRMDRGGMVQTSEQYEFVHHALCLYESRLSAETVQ
# B5: Receptor tyrosine-protein kinase erbB-4 (Homo sapiens), Q15303 (parent)
# chain: B2 chain
# B6: Receptor-type tyrosine-protein phosphatase R (Homo sapiens), Q15256 (parent)
# chain: B4 partner
# Variants of: B1
# Settings: with erbb4_human ERBB4, Q15303
row,Variant,effect of a mutation on the interaction
1,D257A;C291S,with no effect
2,C291S,with no effect

# Variants of: B1
# Settings: with igf1r_human IGF1R
# Target sequence in this assay (P08069 whole entry, looked up): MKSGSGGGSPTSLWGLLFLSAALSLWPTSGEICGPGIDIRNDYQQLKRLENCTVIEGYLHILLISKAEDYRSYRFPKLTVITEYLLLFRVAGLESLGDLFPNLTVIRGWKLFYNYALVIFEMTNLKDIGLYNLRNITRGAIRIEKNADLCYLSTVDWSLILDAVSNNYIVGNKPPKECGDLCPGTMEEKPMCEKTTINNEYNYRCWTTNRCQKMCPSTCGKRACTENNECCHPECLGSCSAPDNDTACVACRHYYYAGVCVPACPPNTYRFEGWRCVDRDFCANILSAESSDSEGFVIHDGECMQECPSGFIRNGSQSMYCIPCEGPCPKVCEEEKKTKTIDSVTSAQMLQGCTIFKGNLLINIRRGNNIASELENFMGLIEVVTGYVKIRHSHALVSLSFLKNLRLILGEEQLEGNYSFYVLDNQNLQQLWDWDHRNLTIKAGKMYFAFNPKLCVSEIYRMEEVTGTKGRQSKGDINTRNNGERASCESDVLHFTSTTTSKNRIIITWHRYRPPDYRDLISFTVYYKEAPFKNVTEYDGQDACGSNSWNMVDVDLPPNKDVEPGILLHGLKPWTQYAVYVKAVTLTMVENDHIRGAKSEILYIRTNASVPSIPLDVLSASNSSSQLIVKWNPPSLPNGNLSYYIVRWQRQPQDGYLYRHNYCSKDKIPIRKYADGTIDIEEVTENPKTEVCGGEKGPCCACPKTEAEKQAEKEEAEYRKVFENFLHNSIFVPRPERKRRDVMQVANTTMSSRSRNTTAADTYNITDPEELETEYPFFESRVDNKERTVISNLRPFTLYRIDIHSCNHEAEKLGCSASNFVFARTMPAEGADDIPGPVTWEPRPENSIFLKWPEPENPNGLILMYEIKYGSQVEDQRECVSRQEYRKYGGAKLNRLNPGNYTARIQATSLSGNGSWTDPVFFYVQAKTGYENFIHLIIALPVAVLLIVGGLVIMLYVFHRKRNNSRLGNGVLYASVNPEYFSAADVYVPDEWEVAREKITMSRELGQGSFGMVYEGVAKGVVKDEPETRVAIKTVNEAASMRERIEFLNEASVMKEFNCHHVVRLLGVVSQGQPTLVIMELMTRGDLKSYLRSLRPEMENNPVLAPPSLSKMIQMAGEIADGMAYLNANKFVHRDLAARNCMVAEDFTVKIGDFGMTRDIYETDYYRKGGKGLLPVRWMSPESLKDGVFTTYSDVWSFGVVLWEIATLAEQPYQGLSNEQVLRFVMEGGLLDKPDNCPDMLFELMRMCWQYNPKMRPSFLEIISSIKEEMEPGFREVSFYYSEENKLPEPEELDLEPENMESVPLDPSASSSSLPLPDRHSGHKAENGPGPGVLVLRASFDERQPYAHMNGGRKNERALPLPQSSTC
row,Variant,effect of a mutation on the interaction
1,D257A;C291S,with no effect
2,C291S,with no effect

# Variants of: B1
# Settings: with igf1r_human IGF1R
# Remark: another data set of the same source
# Target sequence in this assay (P08069 whole entry, looked up): as above
row,Variant,effect of a mutation on the interaction
1,D257A;C291S,increasing interaction
2,C291S,disrupting interaction

# Variants of: B2
# Settings: with ptn7_human PTPN7, P35236
row,Variant,effect of a mutation on the interaction
1,D843N,increasing interaction

# Variants of: B3
# Settings: with igf1r_human IGF1R
# Target sequence in this assay (P08069 whole entry, looked up): as above
row,Variant,effect of a mutation on the interaction
1,D201A;C235S,with no effect
2,C235S,decreasing interaction

# Variants of: B3
# Settings: with erbb4_human ERBB4, Q15303
row,Variant,effect of a mutation on the interaction
1,C231S,with no effect
2,D199A;C231S,disrupting interaction

# Variants of: B3
# Settings: with erbb4_human ERBB4, Q15303
# Remark: another data set of the same source
row,Variant,effect of a mutation on the interaction
1,C231S,disrupting interaction

# Variants of: B3
# Settings: with fgfr2_human FGFR2, P21802
# Sequence of fgfr2_human FGFR2, P21802 (P21802 whole entry, looked up): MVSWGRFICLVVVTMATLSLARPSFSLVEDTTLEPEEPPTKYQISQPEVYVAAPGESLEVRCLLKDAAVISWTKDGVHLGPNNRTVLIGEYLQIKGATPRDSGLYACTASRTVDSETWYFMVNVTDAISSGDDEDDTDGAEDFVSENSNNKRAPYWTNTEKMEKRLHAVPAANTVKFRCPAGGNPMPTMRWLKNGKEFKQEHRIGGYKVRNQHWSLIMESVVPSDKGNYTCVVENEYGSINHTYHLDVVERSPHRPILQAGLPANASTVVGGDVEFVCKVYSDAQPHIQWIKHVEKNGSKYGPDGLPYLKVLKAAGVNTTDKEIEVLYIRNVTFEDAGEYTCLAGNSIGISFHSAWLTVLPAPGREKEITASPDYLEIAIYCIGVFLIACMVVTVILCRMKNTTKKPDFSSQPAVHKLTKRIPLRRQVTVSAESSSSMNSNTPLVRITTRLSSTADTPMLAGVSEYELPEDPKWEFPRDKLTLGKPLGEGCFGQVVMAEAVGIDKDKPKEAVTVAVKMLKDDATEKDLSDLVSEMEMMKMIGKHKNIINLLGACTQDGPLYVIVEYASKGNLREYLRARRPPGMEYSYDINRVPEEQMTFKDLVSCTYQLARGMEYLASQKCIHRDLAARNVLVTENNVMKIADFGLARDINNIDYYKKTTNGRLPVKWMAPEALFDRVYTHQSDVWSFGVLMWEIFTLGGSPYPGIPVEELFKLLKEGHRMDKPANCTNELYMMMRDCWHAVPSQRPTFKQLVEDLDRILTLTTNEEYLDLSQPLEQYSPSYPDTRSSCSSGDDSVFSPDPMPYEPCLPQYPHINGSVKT
row,Variant,effect of a mutation on the interaction
1,C231S,disrupting interaction
2,D199A;C231S,disrupting interaction

# Variants of: B3
# Settings: with fgfr4_human FGFR4, P22455
# Sequence of fgfr4_human FGFR4, P22455 (P22455 whole entry, looked up): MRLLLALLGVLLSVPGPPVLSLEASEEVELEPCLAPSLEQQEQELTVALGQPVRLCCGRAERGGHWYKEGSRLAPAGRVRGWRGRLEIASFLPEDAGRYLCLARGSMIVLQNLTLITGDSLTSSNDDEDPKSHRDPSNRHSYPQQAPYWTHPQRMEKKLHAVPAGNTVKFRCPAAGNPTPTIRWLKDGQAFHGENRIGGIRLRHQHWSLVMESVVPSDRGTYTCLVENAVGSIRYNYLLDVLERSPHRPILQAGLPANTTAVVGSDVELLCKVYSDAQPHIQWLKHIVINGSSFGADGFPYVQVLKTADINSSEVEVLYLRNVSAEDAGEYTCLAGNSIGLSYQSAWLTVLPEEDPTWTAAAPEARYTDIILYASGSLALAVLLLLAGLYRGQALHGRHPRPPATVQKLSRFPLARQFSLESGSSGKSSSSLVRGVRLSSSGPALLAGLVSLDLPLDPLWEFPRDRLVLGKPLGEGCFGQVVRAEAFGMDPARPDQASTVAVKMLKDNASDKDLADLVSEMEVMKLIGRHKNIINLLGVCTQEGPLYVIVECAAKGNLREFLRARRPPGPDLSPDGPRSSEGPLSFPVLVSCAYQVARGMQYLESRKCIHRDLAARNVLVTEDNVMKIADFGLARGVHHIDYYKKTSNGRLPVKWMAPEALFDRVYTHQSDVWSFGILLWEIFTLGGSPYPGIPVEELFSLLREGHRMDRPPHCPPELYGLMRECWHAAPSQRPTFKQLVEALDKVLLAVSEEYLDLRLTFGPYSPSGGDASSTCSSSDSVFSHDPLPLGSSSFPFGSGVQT
row,Variant,effect of a mutation on the interaction
1,C231S,increasing interaction

# Variants of: B3
# Settings: with vgfr2_human KDR
row,Variant,effect of a mutation on the interaction
1,C231S,with no effect
2,D199A;C231S,with no effect

# Variants of: B3
# Settings: with igf1r_human IGF1R
# Remark: another data set of the same source
# Target sequence in this assay (P08069 whole entry, looked up): as the sequence (P08069 whole entry, looked up) above
row,Variant,effect of a mutation on the interaction
1,C231S,increasing interaction
2,D199A;C231S,disrupting interaction

# Variants of: B4
# Settings: with ptprr_human PTPRR, Q15256
row,Variant,effect of a mutation on the interaction
1,K1091A,decreasing interaction

# Variants of: B5
# Settings: with ptn6_human PTPN6, P29350
# Sequence of ptn6_human PTPN6, P29350 (P29350 whole entry): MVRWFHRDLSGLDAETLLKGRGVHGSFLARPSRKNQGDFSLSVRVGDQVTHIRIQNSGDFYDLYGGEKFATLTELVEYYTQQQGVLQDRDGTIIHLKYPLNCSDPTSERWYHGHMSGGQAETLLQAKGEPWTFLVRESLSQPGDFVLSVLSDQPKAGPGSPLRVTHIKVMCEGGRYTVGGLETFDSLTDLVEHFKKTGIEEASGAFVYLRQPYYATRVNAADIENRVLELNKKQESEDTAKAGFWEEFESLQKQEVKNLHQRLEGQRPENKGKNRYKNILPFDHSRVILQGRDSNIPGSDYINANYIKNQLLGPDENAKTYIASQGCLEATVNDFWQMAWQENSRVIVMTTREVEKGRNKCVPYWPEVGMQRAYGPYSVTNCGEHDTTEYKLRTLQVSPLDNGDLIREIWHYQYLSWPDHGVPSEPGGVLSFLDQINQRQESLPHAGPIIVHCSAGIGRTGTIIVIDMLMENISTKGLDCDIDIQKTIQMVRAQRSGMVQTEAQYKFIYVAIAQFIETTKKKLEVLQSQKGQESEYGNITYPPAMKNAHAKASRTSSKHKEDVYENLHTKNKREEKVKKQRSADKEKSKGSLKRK
row,Variant,effect of a mutation on the interaction
1,D843N,with no effect

# Variants of: B6
# Settings: with ret_human RET
row,Variant,effect of a mutation on the interaction
1,Y249F;D554A;C588S,disrupting interaction

# From IntAct's records for PubMed 28065597
